Measured values from doi:10.1101/577536.

Biological target: fusion protein containing the GS120 linker
Experiment: FRET or BRET

V227A MBD2 peptide showed a fold shift of the titration midpoint against the WT MBD2 peptide of 30 fold.
